Assay results reported in article PMC12108596, “Functional Characterization of MIP_07528 of Mycobacterium indicus pranii for Tyrosine Phosphatase Activity Displays Sensitivity to Oxidative Inactivation and Plays a Role in Immunomodulation” (Biology, 2025).

System: O=[N+]([O-])c1ccc(OP(=O)(O)O)cc1
Test: purified protein
[1] = pH 7.5 (20 mM Tris, 150 mM NaCl), 37 °C, 2-8 mM pNPP

## rMIP_07528 (rPtpB-MIP, rMIPPtpB) (Mycobacterium intracellulare ATCC 13950)
[1]
  Km: 300 µM
  kcat: 0.005 s⁻¹

## rPtpB-Mtb (rMTBPtpB) (Mycobacterium tuberculosis H37Rv)
pH 7.5, 37.0 °C
  Km: 1010 µM
